Biological target: T1, HA-tagged Ddi1^Δ202-299 (yeast, UniProt P40087 1-428, Δ202-299)
T1 sequence (looked up): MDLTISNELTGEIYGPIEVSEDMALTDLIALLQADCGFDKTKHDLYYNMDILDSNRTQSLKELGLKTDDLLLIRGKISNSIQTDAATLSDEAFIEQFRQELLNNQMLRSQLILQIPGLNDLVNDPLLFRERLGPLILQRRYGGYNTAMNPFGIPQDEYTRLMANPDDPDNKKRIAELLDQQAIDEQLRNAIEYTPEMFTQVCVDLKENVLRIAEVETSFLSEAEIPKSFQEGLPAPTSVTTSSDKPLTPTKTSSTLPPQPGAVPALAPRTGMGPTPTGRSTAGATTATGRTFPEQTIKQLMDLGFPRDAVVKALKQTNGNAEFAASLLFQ
Assay: co-IP

B1: Cdc48-GFP (natural protein, yeast, UniProt P25694 1-835, looked up)
chain: MGEEHKPLLDASGVDPREEDKTATAILRRKKKDNMLLVDDAINDDNSVIAINSNTMDKLELFRGDTVLVKGKKRKDTVLIVLIDDELEDGACRINRVVRNNLRIRLGDLVTIHPCPDIKYATRISVLPIADTIEGITGNLFDVFLKPYFVEAYRPVRKGDHFVVRGGMRQVEFKVVDVEPEEYAVVAQDTIIHWEGEPINREDEENNMNEVGYDDIGGCRKQMAQIREMVELPLRHPQLFKAIGIKPPRGVLMYGPPGTGKTLMARAVANETGAFFFLINGPEVMSKMAGESESNLRKAFEEAEKNAPAIIFIDEIDSIAPKRDKTNGEVERRVVSQLLTLMDGMKARSNVVVIAATNRPNSIDPALRRFGRFDREVDIGIPDATGRLEVLRIHTKNMKLADDVDLEALAAETHGYVGADIASLCSEAAMQQIREKMDLIDLDEDEIDAEVLDSLGVTMDNFRFALGNSNPSALRETVVESVNVTWDDVGGLDEIKEELKETVEYPVLHPDQYTKFGLSPSKGVLFYGPPGTGKTLLAKAVATEVSANFISVKGPELLSMWYGESESNIRDIFDKARAAAPTVVFLDELDSIAKARGGSLGDAGGASDRVVNQLLTEMDGMNAKKNVFVIGATNRPDQIDPAILRPGRLDQLIYVPLPDENARLSILNAQLRKTPLEPGLELTAIAKATQGFSGADLLYIVQRAAKYAIKDSIEAHRQHEAEKEVKVEGEDVEMTDEGAKAEQEPEVDPVPYITKEHFAEAMKTAKRSVSDAELRRYEAYSQQMKASRGQFSNFNFNDAPLGTTATDNANSNNSAPSGAGAAFGSNAEEDDDLYS
- fold more Cdc48 bound, normalized for the amount of precipitated Ddi1^Δ202-299: 2.1 fold

From paper PMC5896933 (Molecular Biology of the Cell, 2018)
